Biological target: CXCL8 (human)

B1: P1156 (evasin from Ixodes ricinus), purified, C-terminal StrepII:His tag (natural protein)
chain: DGGADDDNELFTVQYCGMNCTKDEGGTWTGCTGKKEGCKCYHESGKNYGLCLSTEYTDFSQYGNPSDSEIEAAKPKRSDTLSH
mean IC50 (three biological replicates) of inhibition of primary human granulocyte migration induced by the EC80 dose of CXCL8: 1.8e-09 M

— paper PMC5910400
